# Patent US20200109188A1 (AstraZeneca / MedImmune, published 2020)
# Substitutions are numbered along the chain they refer to.
# B1: Antibody 5 (antibody, V domains shown)
# VH: QVQLQQSGPGLVKPSQTLSLTCAISGDRVSSNSAVWNWIRQSPSRGLEWLGRTYYRSKWYYDYAESVKSRIVIDPDTSKNQVSLQLNSVTPEDSAIYYCARGGHITVFGLNIDAYDIWGQGAMVTVSS
# VL: DIQMTQSPSSLSASVGDRVTISCRAQSLSSYLHWYQQKPGQPPKLLIYAATTLQSGVPSRFSGSGSGTDFTLTISTFQAEDVATYYCQQSRTFGQGTKVEIK
# B2: Antibody 6 (antibody, V domains shown)
# VH: B1 VH with V107E
# VL: B1 VL
# B3: Antibody 8 (antibody, V domains shown)
# VH: QVQLQQSGPGLVKPSQTLSLTCVISGDTVSSNRATWNWMRQSPLRGLEWLGRTYYRSKWYNDYAVSVKSRVVINPDTSKNQVSLQLNTVTPDDSGVYFCARGGHITVFGVNIDAFDIWGLGTKVTVSS
# VL: DIQMTQSPSSLSASVGDRVTISCRASQRLNSYLHWYQQTPGQAPKLLIYATSTLQSGVSPRFSGSGSGTDFTLTISSLQPEDVATYYCQLSRTFGHGTKVEIK
# B4: Antibody 3 (antibody, V domains shown)
# VH: QVQLQESGPGLVKPSQTLSLTCAISGDSVSSNNAVWNWIRQSPSRGLEWLGRTYYRSKWYNDYAESVKSRITVNPDTSKNQFSLHLKSVTPEDTAVFYCVRSGHITVFGVNVDAFDMWGQGTMVTVSS
# VL: DIQMTQSPSSLSASVGDRVTITCRTSQSLSSYLHWYQQKPGKAPKLLIYAASSLQSGVPSRFSGSGSGTDFTLTISSLQPEDFATYYCQQSRTFGQGTKVEIK
# B5: Antibody 10 (antibody, V domains shown)
# VH: QVQLQQSGPGLVKPSQTLSLTCAISGDSVSSNSATWNWIRQSPSRGLEWLGRTYYRSKWYNDYADFLKRRITINPDTSNNEVSLRLTSVTPDDTALYYCARGGHITVFGVNIDAFDVWGQGTMVTVSS
# VL: B4 VL with V19I, T22S, S30R, A51S, S53T, S77N, Q90L
# B6: Antibody 11 (antibody, V domains shown)
# VH: B4 VH with E6Q, N32Y, K58G, V73I, H85Q, K87N, F97Y, V100A
# VL: B4 VL with L33T, L54R, Q55L
# B7: Antibody 13 (antibody, V domains shown)
# VH: B4 VH with E6Q, N32Y, K58G, V73I, H85Q, K87N, F97Y, V100A
# VL: B4 VL with L33D, L54R, Q55L
# B8: Antibody 15 (antibody, V domains shown)
# VH: B4 VH with E6Q, V73I, H85Q, K87N, F97Y, V100A, M123T
# VL: B4 VL with L33T, L54R, Q55G
# B9: Antibody 14 (antibody, V domains shown)
# VH: B4 VH with E6Q, V73I, H85Q, K87N, F97Y, V100A, M123T
# VL: B4 VL with L33T, L54R, Q55L
# B10: Antibody 12 (antibody, V domains shown)
# VH: B4 VH with E6Q, N32Y, K58G, V73I, H85Q, K87N, F97Y, V100A
# VL: B4 VL with L33T, L54R, Q55G
# Target: HA of ca A/Wuhan/359/95 (H3N2) virus (influenza A virus)
# Test: cell-based or functional assay
row,Binder,"Neutralization IC50, H3-WH95"
1,B1,3.72 µg/mL
2,B2,10.5 µg/mL
3,B3,> 50 µg/mL
4,B4,3.96 µg/mL
5,B5,8.7 µg/mL

# Target: HA of A/Fort Monmouth/1/47 (H1N1) virus (influenza A virus)
# Test: cell-based or functional assay
row,Binder,"Neutralization IC50, H1-FM47"
1,B6,0.43 µg/mL
2,B7,0.5 µg/mL
3,B8,0.35 µg/mL
4,B9,0.44 µg/mL
5,B10,0.28 µg/mL

# Target: HA of A/Kawasaki/9/86 (H1N1) virus (influenza A virus)
# Test: cell-based or functional assay
row,Binder,"Neutralization IC50, H1-Kaw86"
1,B6,0.53 µg/mL
2,B7,0.41 µg/mL
3,B8,0.48 µg/mL
4,B9,0.35 µg/mL
5,B10,0.28 µg/mL

# Target: HA of ca A/Texas/36/91 (H1N1) virus (influenza A virus)
# Test: cell-based or functional assay
row,Binder,"Neutralization IC50, H1-TX91"
1,B6,0.11 µg/mL
2,B7,0.09 µg/mL
3,B8,0.13 µg/mL
4,B9,0.09 µg/mL
5,B10,0.12 µg/mL

# Target: HA of ca A/Beijing/262/95 (H1N1) virus (influenza A virus)
# Test: cell-based or functional assay
row,Binder,"Neutralization IC50, H1-BJ95"
1,B6,1.01 µg/mL
2,B7,1.86 µg/mL
3,B8,1.81 µg/mL
4,B9,2.09 µg/mL
5,B10,1.31 µg/mL

# Target: HA of ca A/New Caledonia/20/99 (H1N1) virus (influenza A virus)
# Test: cell-based or functional assay
row,Binder,"Neutralization IC50, H1-Ncal99"
1,B6,0.66 µg/mL
2,B7,0.77 µg/mL
3,B8,0.79 µg/mL
4,B9,0.67 µg/mL
5,B10,0.61 µg/mL

# Target: HA of H1-BS10 virus
# Test: cell-based or functional assay
row,Binder,"Neutralization IC50, H1-BS10"
1,B6,1.15 µg/mL
2,B7,1.23 µg/mL
3,B8,1.89 µg/mL
4,B9,1.93 µg/mL
5,B10,1.25 µg/mL

# Target: HA of A/Hong Kong/8/68 (H3N2) virus (influenza A virus)
# Test: cell-based or functional assay
row,Binder,"Neutralization IC50, H3-HK68"
1,B6,0.46 µg/mL
2,B7,0.44 µg/mL
3,B8,0.5 µg/mL
4,B9,0.65 µg/mL
5,B10,0.42 µg/mL

# Target: HA of A/Victoria/3/75 (H3N2) virus (influenza A virus, UniProt P03435 17-567)
# Test: cell-based or functional assay
# Chain of HA of A/Victoria/3/75 (H3N2) virus (P03435 17-567 limits assumed): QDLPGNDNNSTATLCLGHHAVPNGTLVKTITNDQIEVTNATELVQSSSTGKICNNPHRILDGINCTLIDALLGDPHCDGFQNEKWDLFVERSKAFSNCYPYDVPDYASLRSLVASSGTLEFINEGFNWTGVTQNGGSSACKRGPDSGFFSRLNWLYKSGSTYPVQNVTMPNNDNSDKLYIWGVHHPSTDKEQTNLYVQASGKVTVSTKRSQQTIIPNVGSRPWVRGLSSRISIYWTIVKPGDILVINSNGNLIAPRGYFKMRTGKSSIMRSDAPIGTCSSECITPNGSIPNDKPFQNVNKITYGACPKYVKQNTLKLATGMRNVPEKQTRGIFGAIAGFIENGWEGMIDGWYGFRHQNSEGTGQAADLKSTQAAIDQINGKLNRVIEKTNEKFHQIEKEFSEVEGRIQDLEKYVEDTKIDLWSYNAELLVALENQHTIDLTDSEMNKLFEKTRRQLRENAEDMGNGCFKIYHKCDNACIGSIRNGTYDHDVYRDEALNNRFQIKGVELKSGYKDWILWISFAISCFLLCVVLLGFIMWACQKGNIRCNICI
row,Binder,"Neutralization IC50, H3-Vic75"
1,B6,0.46 µg/mL
2,B7,0.43 µg/mL
3,B8,0.35 µg/mL
4,B9,0.44 µg/mL
5,B10,0.32 µg/mL

# Target: HA of H3-LA87 (A/Los Angeles/7/09 (H3N2)) virus (influenza A virus)
# Test: cell-based or functional assay
row,Binder,"Neutralization IC50, H3-LA87"
1,B6,0.8 µg/mL
2,B7,1 µg/mL
3,B8,0.83 µg/mL
4,B9,0.83 µg/mL
5,B10,0.82 µg/mL

# Target: HA of ca A/Wuhan/359/95 (H3N2) virus (influenza A virus)
# Test: cell-based or functional assay
# Remark: another data set of the same source
Binder,"Neutralization IC50, H3-WH95","Neutralization IC50, H3-WH95-OR"
B6,2.45 µg/mL,2.26 µg/mL
B4,5.63 µg/mL,7.7 µg/mL
B7,2.77 µg/mL,3.01 µg/mL
B8,3.32 µg/mL,3.48 µg/mL
B9,2.77 µg/mL,3.09 µg/mL
B10,2.09 µg/mL,2.34 µg/mL

# Target: HA of ca A/Sydney/5/97 (H3N2) virus (influenza A virus)
# Test: cell-based or functional assay
row,Binder,"Neutralization IC50, H3-Syd97"
1,B6,1.53 µg/mL
2,B7,2.18 µg/mL
3,B8,1.79 µg/mL
4,B9,1.82 µg/mL
5,B10,1.56 µg/mL

# Target: HA of ca A/Panama/2007/99 (H3N2) virus (influenza A virus)
# Test: cell-based or functional assay
row,Binder,"Neutralization IC50, H3-Pa99"
1,B6,2.18 µg/mL
2,B7,2.62 µg/mL
3,B8,3.39 µg/mL
4,B9,4.36 µg/mL

# Target: HA of A/Wisconsin/67/05 (H3N2) virus (influenza A virus)
# Test: cell-based or functional assay
row,Binder,"Neutralization IC50, H3-Wl05"
1,B6,1.07 µg/mL
2,B7,1.19 µg/mL
3,B8,1.3 µg/mL
4,B9,1.19 µg/mL

# Target: HA of ca A/Perth/16/09 (H3N2) virus (influenza A virus)
# Test: cell-based or functional assay
row,Binder,"Neutralization IC50, H3-Perth09"
1,B6,0.17 µg/mL
2,B7,0.28 µg/mL
3,B8,0.5 µg/mL
4,B9,0.47 µg/mL
5,B10,0.25 µg/mL

# Target: HA of A/Victoria/361/11 (H3N2) virus (influenza A virus)
# Test: cell-based or functional assay
row,Binder,"Neutralization IC50, H3-VC11"
1,B6,0.85 µg/mL
2,B7,1.03 µg/mL
3,B8,1.29 µg/mL
4,B9,1.15 µg/mL
5,B10,0.83 µg/mL

# Target: HA of A/Puerto Rico/8/34 (H1N1) virus (influenza A virus, UniProt P03452 18-565)
# Test: cell-based or functional assay
# Chain of HA of A/Puerto Rico/8/34 (H1N1) virus (P03452 18-565 limits assumed): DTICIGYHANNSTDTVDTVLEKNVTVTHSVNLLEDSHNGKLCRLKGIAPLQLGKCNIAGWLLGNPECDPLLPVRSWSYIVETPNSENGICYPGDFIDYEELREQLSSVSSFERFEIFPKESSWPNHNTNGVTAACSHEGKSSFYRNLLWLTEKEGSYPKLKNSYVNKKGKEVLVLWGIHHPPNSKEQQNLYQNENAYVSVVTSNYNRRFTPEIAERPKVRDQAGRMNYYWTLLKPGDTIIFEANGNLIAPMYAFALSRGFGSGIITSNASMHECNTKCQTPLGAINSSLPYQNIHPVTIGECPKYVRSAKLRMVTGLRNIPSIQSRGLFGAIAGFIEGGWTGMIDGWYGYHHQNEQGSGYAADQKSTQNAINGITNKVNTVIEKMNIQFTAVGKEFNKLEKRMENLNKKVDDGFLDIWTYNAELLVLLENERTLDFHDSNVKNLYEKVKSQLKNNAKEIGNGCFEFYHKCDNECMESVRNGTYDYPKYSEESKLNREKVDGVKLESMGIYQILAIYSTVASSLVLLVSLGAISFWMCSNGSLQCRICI
row,Binder,IC50 (read off the curve)
1,B4,~0.6 µg/mL
2,B10,~0.5 µg/mL
